Results taken from article PMC4303316 (Biochemistry, 2014).
No end group written: not given here.

B1: EhRacC^Q65L (GTPase-deficient EhRacC mutant, GTP-bound) (enzyme, Entamoeba histolytica (strain HM-1:IMSS), UniProt Q24816 1-182, looked up)
chain: MSEKPTSIKLVVVGDGAVGKTCLLISYSIRKFPEDYIPTVFDNYVVSLTAGTRQIQLALWDTAGLEEYDQLRPLSYSSASIFLICFSVTSSVSYDNVITKWHPEVIHFAPKVPIILVGTKLDTRNDPAIVKRLTEQGMTVINTAKGEELKNRIKAVKYIECSAKTSENLKTVFDEAVKTVLM
B2: His6-EhPAK4 PBD (p21 binding domain of Entamoeba histolytica p21-activated kinase 4) (domain or fragment, Entamoeba histolytica (strain HM-1:IMSS), UniProt C4LSU1 12-78, looked up)
chain: ELIISDPTDFEQITHVELGDSGLTGFPPEWREKLIKAGLTEAEINTNEDSAKLVAASGISNDNGNRT
B3: His6-EhPAK5 PBD (p21 binding domain of Entamoeba histolytica p21-activated kinase 5) (domain or fragment, Entamoeba histolytica (strain HM-1:IMSS), UniProt C4MBQ2 105-161, looked up)
chain: His6-DISEPTDYHHLTHVAYEEGGFVGIPYEWENVFLACGITREEIKSNKEDAIKVLEFTQ

How the values were obtained:
[1] = biological target: T1, EhPAK4 PBD, tag removed (crystallographic construct) (Entamoeba histolytica (strain HM-1:IMSS), UniProt C4LSU1 12-78); assay: SEC
T1 sequence (looked up): B2 chain

[2] = biological target: B1; assay: SPR

| Binder | stoichiometry N [1] | Kd [2] |
| --- | --- | --- |
| B1 | 1 EhRacC:EhPAK4 | – |
| B2 | – | 170 ± 30 nM |
| B3 | – | 1900 ± 200 nM |
